The values below come from paper PMC4303595.

The target in the experiment is Ccc1(1-109), truncated recombinant fragment of Ccc1 that contains its chromodomain (Cryptococcus neoformans). In words: fluorescence polarisation. (Polarisation of emitted light reports the rotation of a fluorescent probe.)

In general, Kd refers to the constant that tells how readily two partners part at equilibrium. On to unlabeled Cryptococcus H3K27me2 peptide, for which the equilibrium dissociation constant (Kd) was determined as 119 µM.

As to unlabeled Cryptococcus H3K27me3 peptide, the dissociation constant Kd is 28 µM.
